Measured values as given in patent publication US20040228849A1 (University of California, published 2004).

T1: Flag-IKKβ
T1 chain: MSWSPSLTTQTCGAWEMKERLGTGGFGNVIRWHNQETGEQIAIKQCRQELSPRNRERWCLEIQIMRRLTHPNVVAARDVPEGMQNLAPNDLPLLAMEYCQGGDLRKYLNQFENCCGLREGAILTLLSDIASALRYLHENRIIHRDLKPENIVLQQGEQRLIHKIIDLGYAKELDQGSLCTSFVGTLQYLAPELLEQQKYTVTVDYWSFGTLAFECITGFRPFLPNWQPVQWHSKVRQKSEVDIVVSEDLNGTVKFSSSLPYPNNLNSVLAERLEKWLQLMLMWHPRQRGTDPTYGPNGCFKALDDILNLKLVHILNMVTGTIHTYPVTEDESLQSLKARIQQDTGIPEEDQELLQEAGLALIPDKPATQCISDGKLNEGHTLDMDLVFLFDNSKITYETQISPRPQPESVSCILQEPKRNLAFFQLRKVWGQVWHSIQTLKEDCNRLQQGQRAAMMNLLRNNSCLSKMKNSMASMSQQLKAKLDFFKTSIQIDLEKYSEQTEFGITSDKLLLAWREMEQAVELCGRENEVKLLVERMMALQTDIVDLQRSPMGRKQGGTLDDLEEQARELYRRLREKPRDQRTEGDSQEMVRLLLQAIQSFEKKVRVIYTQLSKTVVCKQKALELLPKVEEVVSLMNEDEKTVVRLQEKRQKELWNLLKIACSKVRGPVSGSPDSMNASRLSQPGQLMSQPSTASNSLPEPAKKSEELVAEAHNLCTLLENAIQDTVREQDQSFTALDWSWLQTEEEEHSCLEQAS

T2: Flag-IKKβ (human, UniProt O14920 1-756)
T2 construct: Transiently coexpressed in 293 cells
T2 sequence: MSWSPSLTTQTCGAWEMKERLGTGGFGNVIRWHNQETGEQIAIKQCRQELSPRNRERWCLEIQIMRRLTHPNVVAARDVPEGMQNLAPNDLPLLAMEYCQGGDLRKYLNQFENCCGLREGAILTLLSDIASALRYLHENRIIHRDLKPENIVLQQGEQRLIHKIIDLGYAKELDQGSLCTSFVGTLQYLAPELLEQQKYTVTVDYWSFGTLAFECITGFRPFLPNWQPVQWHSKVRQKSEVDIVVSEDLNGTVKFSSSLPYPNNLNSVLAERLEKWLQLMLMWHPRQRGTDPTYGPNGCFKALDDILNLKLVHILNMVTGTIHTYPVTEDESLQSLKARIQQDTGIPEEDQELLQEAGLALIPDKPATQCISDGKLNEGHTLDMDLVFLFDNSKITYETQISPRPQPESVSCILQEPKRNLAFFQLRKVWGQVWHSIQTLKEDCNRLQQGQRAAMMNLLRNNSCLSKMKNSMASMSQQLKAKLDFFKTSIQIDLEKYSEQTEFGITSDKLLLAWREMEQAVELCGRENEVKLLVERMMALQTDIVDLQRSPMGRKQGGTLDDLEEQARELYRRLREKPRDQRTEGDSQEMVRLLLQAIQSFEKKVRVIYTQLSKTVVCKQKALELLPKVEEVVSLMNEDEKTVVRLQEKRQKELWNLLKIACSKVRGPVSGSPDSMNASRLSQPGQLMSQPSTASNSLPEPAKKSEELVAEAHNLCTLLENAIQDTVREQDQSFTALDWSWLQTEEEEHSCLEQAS

T3: IKKβ (full length human IKKβ subunit) (human, UniProt O14920 1-756)
T3 construct: Endogenous protein of HeLa cells; also called endogenous IKKβ; 87 kDa protein
T3 sequence: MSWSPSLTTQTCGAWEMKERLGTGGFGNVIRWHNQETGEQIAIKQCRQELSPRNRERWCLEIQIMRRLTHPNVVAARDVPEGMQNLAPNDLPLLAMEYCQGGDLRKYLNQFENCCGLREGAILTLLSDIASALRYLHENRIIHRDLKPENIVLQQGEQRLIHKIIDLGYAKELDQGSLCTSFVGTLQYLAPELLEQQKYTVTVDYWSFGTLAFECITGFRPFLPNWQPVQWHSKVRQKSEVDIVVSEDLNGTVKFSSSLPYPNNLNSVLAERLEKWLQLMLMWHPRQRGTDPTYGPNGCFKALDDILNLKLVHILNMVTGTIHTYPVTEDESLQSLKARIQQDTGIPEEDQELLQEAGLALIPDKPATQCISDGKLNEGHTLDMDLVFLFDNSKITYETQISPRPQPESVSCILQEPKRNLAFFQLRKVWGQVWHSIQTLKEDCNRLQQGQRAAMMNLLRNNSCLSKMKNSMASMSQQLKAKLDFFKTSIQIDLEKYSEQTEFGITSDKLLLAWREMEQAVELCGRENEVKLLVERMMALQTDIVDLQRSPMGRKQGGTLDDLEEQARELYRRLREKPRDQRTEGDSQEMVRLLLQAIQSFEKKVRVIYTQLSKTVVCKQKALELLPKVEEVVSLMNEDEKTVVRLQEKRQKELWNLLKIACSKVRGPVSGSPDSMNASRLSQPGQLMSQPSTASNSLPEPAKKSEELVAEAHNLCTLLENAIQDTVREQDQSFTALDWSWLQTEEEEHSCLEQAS


Columns and labels:
Flag-IKKβ [1] = target: T1, Flag-IKKβ
Flag-IKKβ [2] = target: T2, Flag-IKKβ; assay: coimmunoprecipitation from transfected 293 cells: anti-HA immune complexes probed with anti-Flag(M2)
[3] = target: the molecule itself; assay: immunoprecipitation experiments, transfected mammalian cells
[4] = target: T3, IKKβ (full length human IKKβ subunit); assay: as above

binding result (Flag-IKKβ [2])	binding result [4]	Binder	IKK activity isolated by immunoprecipitation with anti-HA (IκB kinase activity) (Flag-IKKβ [1])	binding result [3]
no binding		HA-IKKα(LZ)^- (enzyme, not shown: small tags and cut ends, Leucine zipper mutant of IKKα; also called IKKα(LZ)^- mutant; IKKα LZ^- mutant) MERPPGLRPGAGGPWEMRERLGTGGFGNVCLYQHRELDLKIAIKSCRLELSTKNRERWCHEIQIMKKLNHANVVKACDVPEELNILIHDVPLLAMEYCSGGDLRKLLNKPENCCGLKESQILSLLSDIGSGIRYLHENKIIHRDLKPENIVLQDVGGKIIHKIIDLGYAKDVDQGSLCTSFVGTLQYLAPELFENKPYTATVDYWSFGTMVFECIAGYRPFLHHLQPFTWHEKIKKKDPKCIFACEEMSGEVRFSSHLPQPNSLCSLIVEPMENWLQLMLNWDPQQRGGPVDLTLKQPRCFVLMDHILNLKIVHILNMTSAKIISFLLPPDESLHSLQSRIERETGINTGSQELLSETGISLDPRKPASQCVLDGVRGCDSYMVYLFDKSKTVYEGPFASRSLSDCVNYIVQDSKIQLPIIQLRKVWAEAVHYVSGLKEDYSRLFQGQRAAMLSLLRYNANSTKMKNTSISASQQLKAKLEFFHKSIQLDLERYSEQMTYGISSEKMLKAWKEMEEKAIHYAEVGVIGYLEDQIMSLHAEIMELQKSPYGRRQGDLMESLEQRAIDLYKQLKHRPSDHSYSDSTEMVKIIVHTVQSQDRVLKERFGHLSKLLGCKQKIIDLLPKVEVALSNIKEADNTVMFMQGKRQKEIWHLLKIACTQSSARSLVGSSLEGAVTPQAYAWLAPDLAEHDHSLSCVVTPQDGETSAQMIEENLNCLGHLSTIIHEANEEQGNSMMNLDWSWLTE	had no effect on the very low activity that coprecipitated with HA-IKKα(LZ)^-	
	binds	IKKα (full length human IKKα subunit) (enzyme, Endogenous protein of HeLa or 293 cells; also called endogenous IKKα; 85 kDa protein) MERPPGLRPGAGGPWEMRERLGTGGFGNVCLYQHRELDLKIAIKSCRLELSTKNRERWCHEIQIMKKLNHANVVKACDVPEELNILIHDVPLLAMEYCSGGDLRKLLNKPENCCGLKESQILSLLSDIGSGIRYLHENKIIHRDLKPENIVLQDVGGKIIHKIIDLGYAKDVDQGSLCTSFVGTLQYLAPELFENKPYTATVDYWSFGTMVFECIAGYRPFLHHLQPFTWHEKIKKKDPKCIFACEEMSGEVRFSSHLPQPNSLCSLIVEPMENWLQLMLNWDPQQRGGPVDLTLKQPRCFVLMDHILNLKIVHILNMTSAKIISFLLPPDESLHSLQSRIERETGINTGSQELLSETGISLDPRKPASQCVLDGVRGCDSYMVYLFDKSKTVYEGPFASRSLSDCVNYIVQDSKIQLPIIQLRKVWAEAVHYVSGLKEDYSRLFQGQRAAMLSLLRYNANLTKMKNTLISASQQLKAKLEFFHKSIQLDLERYSEQMTYGISSEKMLKAWKEMEEKAIHYAEVGVIGYLEDQIMSLHAEIMELQKSPYGRRQGDLMESLEQRAIDLYKQLKHRPSDHSYSDSTEMVKIIVHTVQSQDRVLKERFGHLSKLLGCKQKIIDLLPKVEVALSNIKEADNTVMFMQGKRQKEIWHLLKIACTQSSARSLVGSSLEGAVTPQAYAWLAPDLAEHDHSLSCVVTPQDGETSAQMIEENLNCLGHLSTIIHEANEEQGNSMMNLDWSWLTE		binds
